Test results from PMC10483886 (Molecular cell, 2023).

Molecular target: T1, His-Flag-DBR1 (human, UniProt Q9UK59 1-544)
T1 sequence (looked up): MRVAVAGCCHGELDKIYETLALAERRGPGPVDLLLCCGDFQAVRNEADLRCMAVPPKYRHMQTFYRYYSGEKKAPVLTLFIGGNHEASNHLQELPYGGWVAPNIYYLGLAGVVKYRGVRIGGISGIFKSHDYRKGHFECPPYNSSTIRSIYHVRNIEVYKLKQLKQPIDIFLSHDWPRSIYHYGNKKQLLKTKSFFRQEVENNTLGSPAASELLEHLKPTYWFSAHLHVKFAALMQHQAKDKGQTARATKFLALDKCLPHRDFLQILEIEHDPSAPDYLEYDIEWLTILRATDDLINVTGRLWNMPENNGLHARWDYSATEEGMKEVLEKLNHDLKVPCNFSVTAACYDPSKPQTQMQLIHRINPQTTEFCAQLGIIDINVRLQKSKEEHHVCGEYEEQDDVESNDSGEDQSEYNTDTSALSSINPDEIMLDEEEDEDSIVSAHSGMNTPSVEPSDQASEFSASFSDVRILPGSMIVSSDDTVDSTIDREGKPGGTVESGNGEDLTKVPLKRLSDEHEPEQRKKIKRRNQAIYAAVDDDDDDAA
Test: pull-down

- binding result: binds
B1: GST-TTDN1 (natural protein, human, UniProt Q8TAP9 1-179, looked up)
chain: MQRQNFRPPTPPYPGPGGGGWGSGSSFRGTPGGGGPRPPSPRDGYGSPHHTPPYGPRSRPYGSSHSPRHGGSFPGGRFGSPSPGGYPGSYSRSPAGSQQQFGYSPGQQQTHPQGSPRTSTPFGSGRVREKRMSNELENYFKPSMLEDPWAGLEPVSVVDISQQYSNTQTFTGKKGRYFC
